One molecule from patent US20240067944A1 (published 2024) can be followed below.

No end group written: not given here.

Holding throughout (assay): ELISA, biotinylated 12-mer peptide on streptavidin, 2 ug/mL FLAG-tagged VHH, anti-FLAG-HRP
One test concerns the target T1, … (human).
T1 sequence (peptide, C-terminally conjugated to biotin): LLDFNQTQPERG

For another test, the target named is T2, SVAQATSSSGEA (human).
T2 peptide: SVAQATSSSGEA-biotin
On the procedure:
(§1) To determine whether the binding epitope of the anti-FX VHH polypeptide designated “cmpd #1” are located inside the activation peptide (AP) of human FX (SEQ ID NO:2), an ELISA assay was setup. 41 unique 12-mer peptide fragments spanning the 52 residues of the activation peptide with one amino acid spacing were immobilized in microtiter plate wells followed by incubation with the VHH polypeptide to be tested, and detection of bound ligand was performed by addition of a secondary HRP-labelled antibody.
(§2) The peptides were C-terminally conjugated to biotin and 50 μL of 1 μg/mL peptide solution was used for immobilization in discrete wells of the microtiter plate which was pre-coated with 1 μg/mL streptavidin. Each well was washed with washing buffer (10 mM Tris, 150 mM NaCl, 2.5 mM CaCl₂), 0.05% Tween 20, pH 8.60) followed by addition of 50 μL of 2 μg/mL FLAG-tagged anti-FX VHH polypeptide or IgG antibody to be tested. After 1 hour non-bound VHH polypeptide was washed off using washing buffer.
(§3) Bound anti-FX activation peptide ligand was detected by first binding a HRP-labelled secondary antibody (for FLAG-tagged VHH polypeptide: Anti-FLAG mAb M2-Peroxidase (HRP) (Sigma Aldrich, US) for 1 hour, and then adding 100 μL TMB-1 ELISA substrate (Kem-En-Tec Diagnostics, Denmark).

In another test the target is T3, AQATSSSGEAPD (human).
T3 peptide: AQATSSSGEAPD-biotin
Here is the method:
as §1, §2, §3

For the next test, the target named is T4, ATSSSGEAPDSI (human).
T4 peptide: ATSSSGEAPDSI-biotin
Here is the method:
as §1, §2, §3

The next test deals with T5, TSSSGEAPDSIT (human).
T5 peptide: TSSSGEAPDSIT-biotin
Here is the method: as §1, §2, §3

In the next test the target is T6, SSSGEAPDSITW (human).
T6 peptide: SSSGEAPDSITW-biotin
Here is the method: as §1, §2, §3

A further test has as its target T7, SSGEAPDSITWK (human).
T7 peptide: SSGEAPDSITWK-biotin
On the procedure: as §1, §2, §3

The target of another test is T8, GEAPDSITWKPY (human).
T8 peptide: GEAPDSITWKPY-biotin
Here is the method:
as §1, §2, §3

A further test concerns the target T9, APDSITWKPYDA (human).
T9 peptide: APDSITWKPYDA-biotin
On the procedure:
as §1, §2, §3

In a further test the target is T10, TWKPYDAADLDP (human).
T10 peptide: TWKPYDAADLDP-biotin
On the procedure: as §1, §2, §3

A further test concerns the target T11, KPYDAADLDPTE (human).
T11 peptide: KPYDAADLDPTE-biotin
On the procedure:
as §1, §2, §3

For another test, the target named is T12, PYDAADLDPTEN (human).
T12 peptide: PYDAADLDPTEN-biotin
Here is the method: as §1, §2, §3

A further test deals with T13, ADLDPTENPFDL (human).
T13 peptide: ADLDPTENPFDL-biotin
Here is the method:
as §1, §2, §3

Another test concerns the target T14, DLDPTENPFDLL (human).
T14 peptide: DLDPTENPFDLL-biotin
On the procedure:
as §1, §2, §3

The next test addresses T15, ENPFDLLDFNQT (human).
T15 peptide: ENPFDLLDFNQT-biotin
Here is the method:
as §1, §2, §3

The target of a further test is T16, PFDLLDFNQTQP (human).
T16 peptide: PFDLLDFNQTQP-biotin
Here is the method: as §1, §2, §3

The next test addresses T17, FDLLDFNQTQPE (human).
T17 peptide: FDLLDFNQTQPE-biotin
On the procedure: as §1, §2, §3

In a further test the target is T18, DLLDFNQTQPER (human).
T18 peptide: DLLDFNQTQPER-biotin
Here is the method: as §1, §2, §3

A further test addresses T19, LDFNQTQPERGD (human).
T19 peptide: LDFNQTQPERGD-biotin
On the procedure: as §1, §2, §3

Another test deals with T20, DFNQTQPERGDN (human).
T20 peptide: DFNQTQPERGDN-biotin
On the procedure: as §1, §2, §3

The target in a further test is T21, FNQTQPERGDNN (human).
T21 peptide: FNQTQPERGDNN-biotin
Here is the method: as §1, §2, §3

In a further test the target is T22, NQTQPERGDNNL (human).
T22 peptide: NQTQPERGDNNL-biotin
Here is the method: as §1, §2, §3

For a further test, the target named is T23, QTQPERGDNNLT (human).
T23 peptide: QTQPERGDNNLT-biotin
Here is the method:
as §1, §2, §3

B1: Cmpd #1 (monovalent anti-FX VHH polypeptide, VHH-1.1) (VHH)
VHH: EVQLVESGGGLVQPGGSLRLSCAASGSIGAFDAMGWYRQAPGKQRELVAGIMVSRGNTNYTDSVKGRFTISRDNAKNTVYLQMNSLKPEDTAVYYCKAVKRPGPGYLEVWGQGTLVTVSS
notes: No protractor
B1 registered an ELISA signal normalized relative to the background signal (relative to background) in the test with … (human) of 1.88. Further, the “ELISA signal normalized relative to the background signal” value with SVAQATSSSGEA is 0.96 relative to background; in the test with AQATSSSGEAPD it was 0.97 relative to background; with ATSSSGEAPDSI, 0.98 relative to background; with TSSSGEAPDSIT, 0.77 relative to background; with SSSGEAPDSITW, 0.86 relative to background; with SSGEAPDSITWK, 0.88 relative to background. Moreover, the “ELISA signal normalized relative to the background signal” value is 0.93 relative to background with GEAPDSITWKPY; 1.06 relative to background with APDSITWKPYDA; 1.13 relative to background in the test with TWKPYDAADLDP; 0.8 relative to background with KPYDAADLDPTE; 0.83 relative to background in the test with PYDAADLDPTEN; 0.91 relative to background with ADLDPTENPFDL. The “ELISA signal normalized relative to the background signal” value with DLDPTENPFDLL is 1 relative to background; with ENPFDLLDFNQT, 4 relative to background; with PFDLLDFNQTQP, 4.95 relative to background; with FDLLDFNQTQPE, 4.38 relative to background; with DLLDFNQTQPER, 3.08 relative to background; with LDFNQTQPERGD, 0.97 relative to background. For the same molecule, the “ELISA signal normalized relative to the background signal” value with DFNQTQPERGDN is 0.94 relative to background; with FNQTQPERGDNN it was 1 relative to background; with NQTQPERGDNNL, 0.92 relative to background; in the test with QTQPERGDNNLT, 0.88 relative to background.
